From patent publication US20260250420A1 (SICHUAN KELUN BIOTECH BIOPHARMACEUTICAL, published 2026)

T1: human PTK7 protein (extracellular sequence of human PTK7 with C-terminal 6×His tag) (human, UniProt Q13308 31-704)
T1 construct: extracellular domain; Expressed transiently in HEK293 cells; also called human PTK7-His; human PTK7-His protein
T1 sequence: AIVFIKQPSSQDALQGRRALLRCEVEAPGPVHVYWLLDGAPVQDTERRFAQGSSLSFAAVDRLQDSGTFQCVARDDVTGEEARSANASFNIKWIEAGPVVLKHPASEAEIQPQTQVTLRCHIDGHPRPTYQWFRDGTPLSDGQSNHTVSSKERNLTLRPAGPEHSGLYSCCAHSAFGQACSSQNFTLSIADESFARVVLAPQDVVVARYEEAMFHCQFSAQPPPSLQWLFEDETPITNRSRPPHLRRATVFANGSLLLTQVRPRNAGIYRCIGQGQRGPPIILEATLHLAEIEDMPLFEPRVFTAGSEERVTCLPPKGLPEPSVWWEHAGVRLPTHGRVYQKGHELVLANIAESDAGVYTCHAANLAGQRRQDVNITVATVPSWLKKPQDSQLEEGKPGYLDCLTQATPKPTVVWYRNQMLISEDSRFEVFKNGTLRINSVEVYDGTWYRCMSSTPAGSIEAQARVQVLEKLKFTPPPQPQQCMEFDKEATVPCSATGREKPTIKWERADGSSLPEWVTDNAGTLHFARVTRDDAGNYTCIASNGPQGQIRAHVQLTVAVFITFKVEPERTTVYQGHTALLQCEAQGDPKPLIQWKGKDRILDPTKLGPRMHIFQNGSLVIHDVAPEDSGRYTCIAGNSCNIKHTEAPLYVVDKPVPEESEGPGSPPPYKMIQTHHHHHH

T2: human Fc receptor protein CD32b (human, UniProt P31994 43-217, biotinylated)
T2 construct: Biotinylated protein captured on SA sensors
T2 sequence (looked up): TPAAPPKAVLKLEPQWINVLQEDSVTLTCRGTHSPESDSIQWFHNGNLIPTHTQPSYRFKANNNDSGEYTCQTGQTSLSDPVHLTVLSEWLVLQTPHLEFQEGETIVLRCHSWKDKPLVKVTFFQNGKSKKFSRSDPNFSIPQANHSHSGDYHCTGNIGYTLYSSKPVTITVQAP

T3: human Fc receptor protein CD32a (human, UniProt P12318 34-217, biotinylated)
T3 construct: Biotinylated protein captured on SA sensors
T3 sequence (looked up): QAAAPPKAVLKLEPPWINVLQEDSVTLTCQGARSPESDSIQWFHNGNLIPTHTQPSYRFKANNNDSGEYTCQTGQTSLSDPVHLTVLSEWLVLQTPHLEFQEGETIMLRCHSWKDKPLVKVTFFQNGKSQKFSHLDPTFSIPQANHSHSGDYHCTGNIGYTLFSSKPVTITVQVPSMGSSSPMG


Assays:
[1] = target: T1, human PTK7 protein (extracellular …); test: competition ELISA on coated human PTK7 protein; competitor: biotin-labelled 64A10HZ at a fixed concentration
Description: The human PTK7 protein was diluted to reach 1 μg/ml by using the CBS coating liquid, coated by a 96-well microtiter plate at a density of 100 μl/well, and stood overnight at 4° C.; and after the plate was washed and blocked, the biotin-labeled antibody and the to-be-detected antibody were added, and incubated for 2 h at room temperature. After the plate was washed, the secondary antibody was added for incubation, and finally was subjected to color development, then the reaction was terminated, and the absorbance at OD₄₅₀ nm was read by the microplate reader. The original data was imported into software for nonlinear curve fitting (four parameters).

[2] = target: T4, human Fc receptor protein CD64 (human, UniProt P12314 16-292, limits assumed, biotinylated); test: BLI (ForteBio), biotinylated receptor on SA sensor, antibody from 5,000 nM, 1:1 global fit
T4 construct: Biotinylated protein captured on SA sensors
T4 sequence (P12314 16-292 limits assumed): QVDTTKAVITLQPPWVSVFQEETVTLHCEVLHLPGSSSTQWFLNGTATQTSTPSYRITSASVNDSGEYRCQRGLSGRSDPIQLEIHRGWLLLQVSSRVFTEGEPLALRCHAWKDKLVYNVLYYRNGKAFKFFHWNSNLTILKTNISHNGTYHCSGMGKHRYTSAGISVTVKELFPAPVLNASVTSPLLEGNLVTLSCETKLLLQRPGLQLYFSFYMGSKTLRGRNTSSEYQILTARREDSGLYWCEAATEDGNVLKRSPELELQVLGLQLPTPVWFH
Text: (§1) The dynamic affinity of the antibodies 101A6HZ, 101A6HZm and Hu24 with human Fc receptor proteins CD16a, CD32a, CD32b, CD64 and FcRn was detected through ForteBio (Pall life sciences).

[3] = target: T2, human Fc receptor protein CD32b; test: as above
Text: as §1

[4] = target: T3, human Fc receptor protein CD32a; test: as above
Text: as §1

[5] = target: T5, human Fc receptor protein CD16a (human, UniProt P08637 17-208, biotinylated); test: as above
T5 construct: Biotinylated protein captured on SA sensors
T5 sequence (P08637 17-208 limits assumed): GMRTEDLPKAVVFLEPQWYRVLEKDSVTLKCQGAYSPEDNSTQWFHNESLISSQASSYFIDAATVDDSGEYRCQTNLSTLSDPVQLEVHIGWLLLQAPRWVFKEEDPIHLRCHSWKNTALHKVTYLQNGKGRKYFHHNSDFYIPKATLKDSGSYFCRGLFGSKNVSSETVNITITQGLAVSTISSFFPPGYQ
Text: as §1

| IC50 (read off the curve) [1] | Kd [2] | Kd [3] | Kd [4] | Kd [5] | Binder |
| --- | --- | --- | --- | --- | --- |
| ~0.2 µg/mL |  |  |  |  | 64A10HZ (anti-human PTK7 humanized antibody) (antibody, human IgG1, kappa, V domains shown, Human IgG1 heavy chain constant region and human Kappa light chain constant region; expressed in CHO-S cells) VH: QVQLQESGPGLVKPSETLSLTCTVSGFSLTSYGVYWVRQPPGKGPEWLGVIWTSGNTNYNPSLKSRLTISKDNSKNQVSLKLSSVTAADTAVYYCVKHDGGNYVGVMNYWGQGTLVTVSS VL: EIVMTQSPDFQSVTPKEKVTITCRASQSISDYLHWYQQKPDQSPKLLIKYASQSISGVPSRFSGSGSGSDFTLTINSLEAEDAATYYCQNGHSFPPTFGQGTKLEIKR |
|  | 0.000465 µM | 1.76 µM | 1.73 µM | 1.19 µM | Hu24 (PTK7 control antibody, taken from Hu24 in the Patent CN201580030255) (antibody) chain 1: QVQLVQSGPEVKKPGASVKVSCKASGYTFTDYAVHWVRQAPGKRLEWIGVISTYNDYTYNNQDFKGRVTMTRDTSASTAYMELSRLRSEDTAVYYCARGNSYFYALDYWGQGTSVTVSS chain 2: EIVLTQSPATLSLSPGERATLSCRASESVDSYGKSFMHWYQQKPGQAPRLLIYRASNLESGIPARFSGSGSGTDFTLTISSLEPEDFAVYYCQQSNEDPWTFGGGTKLEIK |
|  | 0.000508 µM | 1.78 µM | 2.27 µM | 1.01 µM | 101A6HZ (anti-human PTK7 humanized antibody) (antibody, human IgG1, kappa) heavy: not shown light: DIVMTQSPDSLAVSLGERATINCKASQDVGSAVIWYQQKPGQSPKLLIYWASTRHTGVPDRFSGSGSGTDFTLTISSLQAEDVAVYYCQQYSSYPLTFGQGTKLEIKRTVAAPSVFIFPPSDEQLKSGTASVVCLLNNFYPREAKVQWKVDNALQSGNSQESVTEQDSKDSTYSLSSTLTLSKADYEKHKVYACEVTHQGLSSPVTKSFNRGEC |
